The target of assay [1] is T1, SARS-CoV-2 RBD (residues Arg319-Phe541), His-tagged (SARS-CoV-2, UniProt P0DTC2). The assay is described as follows: SPR. As to conditions: both partners purified.
The target of assay [2] is T1, SARS-CoV-2 RBD (residues …). The assay is described as follows: cryo-EM structure. As to conditions: both partners purified.

B1: MA1 monoclonal antibody (antibody, V domains shown)
VH: QVQLKESGPGLVAPSQSLSITCTVSGFSLSDYSISWIRQPPGKGLEWLGVIWGGGSTYYNSALKSRLSISKDNSKSQVFLKMNSLQTDDTAMYYCAKHPLYYGSNSDGYYAMDYWGQGTSVTVSS
VL: DIVMTQSHKFMSTSVGDRVSITCKASQDVGIVVAWYQQKPGQSPKLLIYWASTRHTGVPDRFTGSGSGTDFTLTISNVQSEDLADYFCQQYSSYPLTFGGGTKLEIK
notes: also called group I mAb; source: hybridoma cell line or transfection of linear expression cassettes
B1: the binding result in assay [1] is listed as “binds”.

B2: MA1scFv (scFv, V domains shown)
VH: QVQLKESGPGLVAPSQSLSITCTVSGFSLSDYSISWIRQPPGKGLEWLGVIWGGGSTYYNSALKSRLSISKDNSKSQVFLKMNSLQTDDTAMYYCAKHPLYYGSNSDGYYAMDYWGQGTSVTVSS
VL: DIVMTQSHKFMSTSVGDRVSITCKASQDVGIVVAWYQQKPGQSPKLLIYWASTRHTGVPDRFTGSGSGTDFTLTISNVQSEDLADYFCQQYSSYPLTFGGGTKLEIK
In the case of B2, the binding result in assay [2] was “binds”.

The values above are taken from article PMC8441738 (MedComm, 2021).
